According to patent US20190359687A1 (Bayer, published 2019):
Changes are numbered by the printed parent chain. Numbers in names are those of the source.

T1: human glycophorin A on human red blood cells or red blood cell membranes (human, UniProt P02724 20-150)
T1 construct: whole, on cells; also called hRBC; human RBC membranes
T1 sequence (looked up): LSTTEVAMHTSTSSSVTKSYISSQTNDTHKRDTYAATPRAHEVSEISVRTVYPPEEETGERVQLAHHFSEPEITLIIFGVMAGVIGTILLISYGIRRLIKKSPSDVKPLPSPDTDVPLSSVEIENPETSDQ

T2: native human glycophorin A protein (human, UniProt P02724 20-150)
T2 construct: mature; also called Hu-nat GPA
T2 sequence (looked up): T1 sequence (looked up)

T3: recombinant human glycophorin A ectodomain protein (human, UniProt P02724 20-91)
T3 construct: 72 amino acids of the extracellular region; also called Hu-rec GPA
T3 sequence: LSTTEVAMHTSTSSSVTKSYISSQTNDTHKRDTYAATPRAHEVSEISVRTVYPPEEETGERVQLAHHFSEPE

B1: TPP-7783, affinity matured 6C12 Fab (Fab, V domains shown)
VH: EVQLVQSGAEVKKPGASVKVSCKASGYTFTTYAIHWVRQAPGQGLEWMGYINPSSGYTRYNPKFKHRVTMTRDKSTSTAYMELRSLRSDDTAVYYCWTGTRDYWGQGTTVTVSS
VL: DIQLTQSPSFLSASVGDRVTITCRASSSVRYIYWFQQKPGKAPKLLIYATSFRRSGVPSRFSGSGSGTEYTLTISSLQPEDFATYYCHQRNSFPYTFGQGTKLEIK
notes: Tested as Fab
B2: TPP-4935, humanized 6C12 parental Fab (Hu6C12-24) (Fab, V domains shown)
VH: B1 VH with A33T, M48I, G56D, H66D, M70L, R72T, W97Q
VL: DIQLTQSPSFLSASVGDRVTITCSAASSVSYIYWFQQKPGKAPKLLIYSTSTLPSGVPSRFSGSGSGTEYTLTISSLQPEDFATYYCHQRNSFPFTFGQGTKLEIKR
notes: also called parent Fab; TPP-4935 (Parental)
B3: TPP-7797, affinity matured 6C12 Fab (Fab, V domains shown)
VH: B1 VH with A33T, H66G, T100R
VL: B1 VL with R54Q
notes: Tested as Fab
B4: TPP-5702, Hu6C12-24 Fab variant VL: (S24R, A26S, S49A, P54Q, F95Y) (Fab, V domains shown)
VH: B1 VH with A33T, M48I, G56D, H66D, M70L, R72T, W97Q
VL: B2 VL with S24R, A26S, S49A, P54Q, F95Y
notes: Built on the parental Fab TPP-4935
B5: TPP-5907, humanized and germlined 6C12 Fab; VL: (S24R, A26S, S49A, P54Q, F95Y); VH: (I48M, S54G, D56G, D66G, L70M, T72R) (Fab, V domains shown)
VH: B1 VH with A33T, S54G, H66G, W97Q
VL: B2 VL with S24R, A26S, S49A, P54Q, F95Y
B6: TPP-5841, Hu6C12-24 Fab variant VL: (S24R, A26S, S49A, P54Q, F95Y); VH: (D66G, L70M) (Fab, V domains shown)
VH: B1 VH with A33T, M48I, G56D, H66G, R72T, W97Q
VL: B2 VL with S24R, A26S, S49A, P54Q, F95Y
notes: as for B4
B7: TPP-5835, Hu6C12-24 Fab variant VL: (S24R, A26S, S49A, P54Q, F95Y); VH: (I48M, L70M) (Fab, V domains shown)
VH: B1 VH with A33T, G56D, H66D, R72T, W97Q
VL: B2 VL with S24R, A26S, S49A, P54Q, F95Y
notes: as for B4
B8: TPP-5839, Hu6C12-24 Fab variant VL: (S24R, A26S, S49A, P54Q, F95Y); VH: (I48M, D66G, L70M, T72R) (Fab, V domains shown)
VH: B1 VH with A33T, G56D, H66G, W97Q
VL: B2 VL with S24R, A26S, S49A, P54Q, F95Y
notes: as for B4
B9: TPP-7794, affinity matured 6C12 Fab (Fab, V domains shown)
VH: B1 VH
VL: B1 VL with R54Q
notes: Tested as Fab

Assays:
[1] = target: T1, human glycophorin A on human red blood …; test: Fab on intact human RBC, unbound Fab by ELISA; 20 min after 200-fold dilution
[2] = target: T4, Cynomolgus monkey glycophorin A on Cynomolgus monkey red blood cells or red blood cell membranes (Cynomolgus monkey); test: Fab on intact cyno RBC, unbound Fab by ELISA; 60 min after 200-fold dilution
T4 construct: whole, on cells; also called Cyno RBC; Cynomolgus monkey RBC membranes

[3] = target: T1, human glycophorin A on human red blood …; test: SPR (Biacore), Fab on human RBC membranes; T½ = 0.69/kd; * not accurate;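 on kon: human RBC membranes captured on an L1 sensor chip, Fab fragments passed over as analyte, binding kinetics read by surface plasmon resonance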
Protocol: (§1) Kinetic analysis of the antibody binding to human red blood cell membranes was also performed using surface plasmon resonance (SPR) using a Biacore instrument. In this assay membranes prepared from human red blood cells were attached to a L1 sensor matrix and antibodies were flowed over the RBC membranes.
(§2) The binding kinetics of the affinity matured Fab antibodies was also measured.

[4] = target: T4, Cynomolgus monkey glycophorin A on …; test: Fab on intact cyno RBC, unbound Fab by ELISA; 20 min after 200-fold dilution
Protocol: (§3) The binding of affinity matured Fab antibodies to intact Cynomolgus monkey RBC was measured. Cynomolgus monkey RBC were isolated from fresh anti-coagulated blood by centrifugation through a ficol gradient and washing in PBS buffer. RBC diluted to 1/10th of normal hematocrit were incubated with the Fab at a final concentration of 7 ug/ml for 1 hour at room temperature on a rotating shaker after which a sample was taken and the RBC were pelleted by centrifugation and the supernatant was collected. The remaining RBC suspension was diluted 200-fold in PBS buffer and incubated for a total of 2 hours at room temperature on a rotating shaker and samples were removed at 0, 5 min, 20 min, 1 h and 2 h and the RBC pelleted and the supernatant collected. […] The amount of Fab in the supernatants was then measured using an ELISA assay and the results used to calculate the percentage of the input Fab that was bound to the RBC.

[5] = target: T1, human glycophorin A on human red blood …; test: Fab on intact human RBC, unbound Fab by ELISA; 60 min after 200-fold dilution
[6] = target: T1, human glycophorin A on human red blood …; test: SPR (Biacore), Fab on human RBC membranes;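 further: human RBC membranes captured on an L1 sensor chip, Fab fragments passed over as analyte, binding kinetics read by surface plasmon resonance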
Protocol: as §1, §2

[7] = target: T4, Cynomolgus monkey glycophorin A on …; test: Fab on intact cyno RBC, unbound Fab by ELISA; 120 min after 200-fold dilution
Protocol: as §3

[8] = target: T4, Cynomolgus monkey glycophorin A on …; test: Fab 7 ug/ml on intact cyno RBC, unbound Fab by ELISA; pre-dilution
[9] = target: T4, Cynomolgus monkey glycophorin A on …; test: Fab on intact cyno RBC, unbound Fab by ELISA; 0 min after 200-fold dilution
Protocol: as §3

[10] = target: T1, human glycophorin A on human red blood …; test: Fab on intact human RBC, unbound Fab by ELISA; 0 min after 200-fold dilution
[11] = target: T1, human glycophorin A on human red blood …; test: Fab on intact human RBC, unbound Fab by ELISA; 5 min after 200-fold dilution
Protocol: (§4) The binding of affinity matured Fab antibodies to intact human RBC was also measured. Human RBC were isolated from fresh anti-coagulated normal human blood by centrifugation through a ficol gradient and washing in PBS buffer. RBC diluted to 1/10th of normal hematocrit were incubated with purified Fab antibodies at a final concentration of 7 ug/ml for 1 hour at room temperature on a rotating shaker after which a sample was taken and the RBC were pelleted by centrifugation and the supernatant was collected. The remaining RBC suspension was diluted 200-fold in PBS buffer and incubated for a total of 2 hours at room temperature on a rotating shaker and samples were removed at 0, 5 min, 20 min, 1 h and 2 h and the RBC pelleted and the supernatant collected. The amount of Fab in the supernatants was then measured using an ELISA assay and the results used to calculate the percentage of the input Fab that was bound to the RBC. […] The percentage that remains bound after 200-fold dilution of the RBC suspension is an indication of the overall strength of the binding to human RBC.

[12] = target: T1, human glycophorin A on human red blood …; test: Fab on intact human RBC, unbound Fab by ELISA; 120 min after 200-fold dilution
Protocol: as §4

[13] = target: T1, human glycophorin A on human red blood …; test: Fab 7 ug/ml on intact human RBC, unbound Fab by ELISA; pre-dilution
[14] = target: T1, human glycophorin A on human red blood …; test: SPR (Biacore), Fab on human RBC membranes; * not accurate, instrument limit
Protocol: as §1, §2

[15] = target: T4, Cynomolgus monkey glycophorin A on …; test: Fab on intact cyno RBC, unbound Fab by ELISA; 5 min after 200-fold dilution
Protocol: as §3

[16] = target: T2, native human glycophorin A protein; test: ELISA, Fab on coated native human GPA
[17] = target: T1, human glycophorin A on human red blood …; test: ELISA, Fab on coated human RBC membranes
Protocol: These membranes are prepared by first isolating red blood cells from citrated whole blood. Citrated whole blood is layered on to Ficol and centrifuged at low speed for 20 minutes to pellet the red blood cells. The supernatant containing plasma and other blood cells is discarded and the red blood cell pellet is subsequently washed 3 times in 10 cell volumes of phosphate buffered saline (PBS). A 10 ml pellet of purified red blood cells is resuspended in 30 ml of cold low osmorality 20 mM phosphate buffer (pH7.4) and incubated for 30 mins to break open the RBC. After Centrifugation at 10,000 rpm for 30 min at 5° C. the hemoglobin containing supernatant is discarded. To the membrane pellet another 30 ml of 20 mM phosphate buffer is added and the sample centrifuged again at 10,000 rpm for 30 min at 5° C. to pellet the membrane fraction. This wash and centrifugation step is repeated another 4 times. The red blood cell membranes are then resuspended in 20 mL of PBS to achieve an equivalent of approximately 2.5E9 cells/mL and stored frozen at −20° C. Binding of antibodies to RBC ghost can be measured by ELISA in which the RBC ghost suspension (5×10⁶ in 100 ul PBS) was added to each well of flat bottom 96-well ELISA microtiter plates (2HB, Immunolon) and the plates incubated overnight at 4° C. The plates were blocked with Starting blocking buffer (Thermo Fisher) for 2 hours at room temperature (RT). Antibodies or other test molecules were added to each well and incubated for 1.5 hours at RT. After 4 washes 100 ul of an appropriate detection antibody was added to each well and incubated for 1 hour at RT. After 4 washes the detection antibody was measured using appropriate detection reagents.

[18] = target: T1, human glycophorin A on human red blood …; test: SPR (Biacore), Fab over human RBC membranes, 1:1 fit; * slight deviation possible
Protocol: as §1

[19] = target: T3, recombinant human glycophorin A …; test: ELISA, Fab on coated recombinant human GPA ectodomain
[20] = target: T5, Cynomolgus monkey recombinant glycophorin A ectodomain (Cynomolgus monkey); test: ELISA, Fab on coated recombinant cyno GPA ectodomain
T5 construct: extracellular domain

[21] = target: T4, Cynomolgus monkey glycophorin A on …; test: ELISA, Fab on coated cyno RBC membranes
[22] = target: T1, human glycophorin A on human red blood …; test: SPR (Biacore), Fab over human RBC membranes, 1:1 fit;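 further: human RBC membrane preparations captured on an L1 sensor surface, with antibody passed over them as analyte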
Protocol: as §1

Binder | percentage of input antibody bound [1] | percentage of input antibody bound [2] | Estimated T½ [3] | percentage of input antibody bound [4] | percentage of input antibody bound [5] | percentage of input antibody bound [7] | percentage of input antibody bound [8] | percentage of input antibody bound [9] | percentage of input antibody bound [10] | percentage of input antibody bound [11] | percentage of input antibody bound [12] | percentage of input antibody bound [13] | binding in ELISA relative to parental Fab [16] | binding in ELISA relative to parental Fab [17] | binding in ELISA relative to parental Fab [19] | binding in ELISA relative to parental Fab [20] | binding in ELISA relative to parental Fab [21] | Kd [22] | koff [22] | kon [22] | other results
B1 | 86% | 64% | 33 days | 62% | 84% | 56% | 72% | 60% | 87% | 86% | 85% | 90% | – | – | – | – | – | – | – | – | kon [6]: 267000 M⁻¹ s⁻¹; Kd [14]: 0.000904 nM; koff [14]: 2.42e-07 s⁻¹; percentage of input antibody bound [15]: 62%
B2 | – | – | – | – | – | – | – | – | – | – | – | – | 1 relative to parental Fab | 1 relative to parental Fab | 1 relative to parental Fab | 1 relative to parental Fab | – | – | – | – | Kd [18]: 167 nM; koff [18]: 0.031 s⁻¹; kon [18]: 190000 M⁻¹ s⁻¹
B3 | 94% | 56% | 0.487 days | 59% | 94% | 50% | 79% | 81% | 96% | 95% | 92% | 97% | – | – | – | – | – | – | – | – | Kd [14]: 0.000253 nM; koff [14]: 1.64e-05 s⁻¹; kon [14]: 6.49e+07 M⁻¹ s⁻¹; percentage of input antibody bound [15]: 66%
B4 | – | – | – | – | – | – | – | – | – | – | – | – | 5.2 relative to parental Fab | 10.2 relative to parental Fab | 4.3 relative to parental Fab | 1.1 relative to parental Fab | 1.1 relative to parental Fab | 170 nM | 0.11 s⁻¹ | 650000 M⁻¹ s⁻¹ | –
B5 | – | – | – | – | – | – | – | – | – | – | – | – | 12.3 relative to parental Fab | 90.1 relative to parental Fab | 6.9 relative to parental Fab | 1.4 relative to parental Fab | 1.9 relative to parental Fab | 0.8 nM | 0.004 s⁻¹ | 4.9e+06 M⁻¹ s⁻¹ | –
B6 | – | – | – | – | – | – | – | – | – | – | – | – | 5.8 relative to parental Fab | 11.9 relative to parental Fab | 4.7 relative to parental Fab | 1.2 relative to parental Fab | 2.1 relative to parental Fab | 3.3 nM | 0.0043 s⁻¹ | 1.3e+06 M⁻¹ s⁻¹ | –
B7 | – | – | – | – | – | – | – | – | – | – | – | – | 5.2 relative to parental Fab | 10.3 relative to parental Fab | 4.3 relative to parental Fab | 1.1 relative to parental Fab | 1.4 relative to parental Fab | – | – | – | –
B8 | – | – | – | – | – | – | – | – | – | – | – | – | 5.8 relative to parental Fab | 5.8 relative to parental Fab | 4.7 relative to parental Fab | 1.2 relative to parental Fab | 2.3 relative to parental Fab | 1.6 nM | 0.0035 s⁻¹ | 2.1e+06 M⁻¹ s⁻¹ | –
B9 | 90% | 67% | 922 days | 65% | 90% | 57% | 73% | 67% | 92% | 91% | 90% | 93% | – | – | – | – | – | – | – | – | Kd [14]: < 0.01 nM; koff [14]: < 2e-05 s⁻¹; kon [14]: 2.22e+07 M⁻¹ s⁻¹; percentage of input antibody bound [15]: 66%
